The source of these data is paper doi:10.1101/797449.

In the experiment the target is dsRBD1 of human TAR RNA Binding Protein (TRBP2) (human). Nature of the experiment: SEC-MALS. On the technique in general: SEC sorts molecules by how far they enter the pores of the column.

As usually defined, the stoichiometry N is a count of units in the complex or per binding partner. As for “dsRBD1 of human TAR RNA Binding Protein (TRBP2) (domain or fragment)”, the population of tetramer relative to monomer was found to be 0.25 and the stoichiometry N was 4.
